Test in all cases: EMSA
For orientation: In EMSA bound probe runs differently from free probe, usually more slowly.

For data set [1], the target named is T1, mDHX36 delta-OB-fold (Mus musculus, UniProt B2RQS6 46-834+895-981, internal_change).
T1 sequence: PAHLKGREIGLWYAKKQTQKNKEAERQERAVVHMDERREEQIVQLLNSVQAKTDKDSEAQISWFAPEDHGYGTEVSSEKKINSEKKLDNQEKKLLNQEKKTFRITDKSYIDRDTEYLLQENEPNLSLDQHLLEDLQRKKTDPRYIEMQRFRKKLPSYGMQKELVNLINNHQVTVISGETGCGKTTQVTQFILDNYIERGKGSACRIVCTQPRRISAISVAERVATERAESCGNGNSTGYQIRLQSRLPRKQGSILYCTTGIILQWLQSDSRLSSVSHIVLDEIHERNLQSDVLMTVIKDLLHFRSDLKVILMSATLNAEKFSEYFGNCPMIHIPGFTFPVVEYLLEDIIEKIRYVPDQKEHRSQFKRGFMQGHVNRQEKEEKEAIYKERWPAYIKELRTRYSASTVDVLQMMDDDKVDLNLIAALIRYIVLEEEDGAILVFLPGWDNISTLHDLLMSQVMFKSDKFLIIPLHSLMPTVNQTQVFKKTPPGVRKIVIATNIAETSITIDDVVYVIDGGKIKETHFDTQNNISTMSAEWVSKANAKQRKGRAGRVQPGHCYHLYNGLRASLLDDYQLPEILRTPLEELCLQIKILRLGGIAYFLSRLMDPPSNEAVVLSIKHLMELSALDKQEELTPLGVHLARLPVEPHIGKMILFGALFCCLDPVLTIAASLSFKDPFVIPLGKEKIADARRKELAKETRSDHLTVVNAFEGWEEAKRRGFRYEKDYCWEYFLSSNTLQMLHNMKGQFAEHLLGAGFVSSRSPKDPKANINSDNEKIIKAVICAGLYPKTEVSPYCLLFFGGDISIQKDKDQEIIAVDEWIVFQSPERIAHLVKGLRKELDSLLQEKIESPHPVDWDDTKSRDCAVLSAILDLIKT

The target of data set [2] is T2, WT mDHX36 (46-982) (Mus musculus, UniProt B2RQS6 46-982).
T2 sequence: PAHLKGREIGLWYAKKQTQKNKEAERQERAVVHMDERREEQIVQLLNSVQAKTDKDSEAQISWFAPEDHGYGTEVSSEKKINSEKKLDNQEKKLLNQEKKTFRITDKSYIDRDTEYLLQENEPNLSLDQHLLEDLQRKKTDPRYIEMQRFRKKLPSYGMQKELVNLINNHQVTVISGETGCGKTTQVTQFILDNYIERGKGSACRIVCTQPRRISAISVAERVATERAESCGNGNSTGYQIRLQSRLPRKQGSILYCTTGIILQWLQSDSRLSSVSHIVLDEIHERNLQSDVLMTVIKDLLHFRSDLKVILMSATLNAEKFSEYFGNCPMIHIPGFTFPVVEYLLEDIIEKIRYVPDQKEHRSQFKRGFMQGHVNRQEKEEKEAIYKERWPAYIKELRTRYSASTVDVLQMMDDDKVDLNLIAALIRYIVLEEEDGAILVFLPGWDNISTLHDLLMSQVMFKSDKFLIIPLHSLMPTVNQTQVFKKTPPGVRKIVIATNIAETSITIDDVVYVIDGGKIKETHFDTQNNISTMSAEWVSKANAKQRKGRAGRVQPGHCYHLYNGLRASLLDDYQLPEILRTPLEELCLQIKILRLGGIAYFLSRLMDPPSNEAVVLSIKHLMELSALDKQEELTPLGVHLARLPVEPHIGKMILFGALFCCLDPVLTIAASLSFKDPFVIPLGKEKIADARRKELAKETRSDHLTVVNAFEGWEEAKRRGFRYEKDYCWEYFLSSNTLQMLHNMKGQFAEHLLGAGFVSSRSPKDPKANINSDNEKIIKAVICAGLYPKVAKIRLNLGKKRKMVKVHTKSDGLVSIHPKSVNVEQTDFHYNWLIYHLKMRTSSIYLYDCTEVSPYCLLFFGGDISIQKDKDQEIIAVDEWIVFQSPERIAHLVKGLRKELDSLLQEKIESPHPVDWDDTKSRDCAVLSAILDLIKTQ

The target of data set [3] is T2, WT mDHX36 (46-982). This is another data set of the same source.

Like-named read-outs stand apart in the source and are kept apart here.

B1: GQI (GQ1) intramolecular RNA G-quadruplex (structured_RNA)
RNA: UUAGGGGGAGGGGGAUGGGGGAGGGGGAAAAAAAAAAAAAAA
B1: the “apparent K (half saturation)” value in data set [1] is about 50 nM. Moreover, the binding result in data set [2] is “binds”.

B2: RNA duplex R16/R31 (dsRNA)
RNA 1: AGCACCGUAAAGACGC
RNA 2: GCGUCUUUACGGUGCUAAAAAAAAAAAAAAA
On to B2, for which, in data set [3], the binding result is recorded as “binds”.
